Source: US20190127470A1 (TRUSTEES OF DARTMOUTH COLLEGE, published 2019)

Target: T1, g2.5-11 scFv-Fc (UniProt P01857-1 1-330 = IgG part)
T1 construct: domain: heavy chain constant regions (CH1-CH3); also called g2.5-3 (identical at the amino acid level); Fg2.5-3
Test: Octet BLI, scFv-Fc loaded on anti-human CH1 tips, 0-500 nM B7H6-Ig in solution, global fit
Method: Anti-Human CH1 tips were activated with 0.05 mg/mL a2.5-11 scFv-Fc protein for 600 seconds to ensure saturation of tips with […]. Tips were then transferred to PBS+0.1% Tween (PBS-T)-containing wells for baseline measurements of scFv-Fc-loaded tips before transferring to antigen-containing wells ranging from 0-500 nM B7H6-Ig. Samples were double-referenced using non-activated tips and PBS-T only containing wells. The Octet Analysis software was used for global kinetic fits which determine a single KD measurement for each antigen using association and dissociation curves for all concentrations tested.

T1 sequence (P01857 other isoform, or with tags, fused parts or gaps limits assumed): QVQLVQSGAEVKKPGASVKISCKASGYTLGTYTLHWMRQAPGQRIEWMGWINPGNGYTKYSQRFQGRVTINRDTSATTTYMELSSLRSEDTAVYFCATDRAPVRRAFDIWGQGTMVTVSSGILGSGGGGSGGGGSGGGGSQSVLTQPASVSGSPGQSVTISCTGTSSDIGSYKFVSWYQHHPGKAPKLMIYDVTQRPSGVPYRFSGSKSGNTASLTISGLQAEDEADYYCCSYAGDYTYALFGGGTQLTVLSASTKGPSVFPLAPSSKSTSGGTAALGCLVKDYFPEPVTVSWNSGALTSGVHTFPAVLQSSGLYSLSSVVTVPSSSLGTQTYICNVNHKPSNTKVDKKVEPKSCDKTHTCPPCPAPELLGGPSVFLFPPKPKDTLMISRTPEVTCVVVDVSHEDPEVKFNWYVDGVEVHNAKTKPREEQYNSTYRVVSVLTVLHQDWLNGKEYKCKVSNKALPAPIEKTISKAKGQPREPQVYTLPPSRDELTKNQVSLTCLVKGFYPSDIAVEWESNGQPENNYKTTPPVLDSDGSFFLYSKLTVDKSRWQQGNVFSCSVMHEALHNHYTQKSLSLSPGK

B1: B7H6-Ig, a fusion protein containing the extracellular portion of B7H6 and the Fc portion of a Mouse IgG2a (Fc fusion, UniProt Q68D85 25-262, looked up)
chain: DLKVEMMAGGTQITPLNDNVTIFCNIFYSQPLNITSMGITWFWKSLTFDKEVKVFEFFGDHQEAFRPGAIVSPWRLKSGDASLRLPGIQLEEAGEYRCEVVVTPLKAQGTVQLEVVASPASRLLLDQVGMKENEDKYMCESSGFYPEAINITWEKQTQKFPHPIEISEDVITGPTIKNMDGTFNVTSCLKLNSSQEDPGTVYQCVVRHASLHTPLRSNFTLTAARHSLSETEKTDNFS
notes: extracellular domain; also called soluble B7H6-Ig antigen; not shown: Fc portion of a Mouse IgG2a
**Q.** With B1 as the binder, how does the Kd read?
**A.** 25.7 nM

**Q.** What about the koff of the same binder?
**A.** 0.00035 s⁻¹

**Q.** What about the kon of the same binder?
**A.** 13700 M⁻¹ s⁻¹
